{"source": "patent US10370433B2", "about": "“Compositions and methods for diagnosis and treatment of cancer” (BIONTECH AG, priority 2015, dated 2019)", "key": {"[1]": {"tested_on": "CHO-K1-huSeprase tumors", "assay": "Biodistribution and tumor targeting of AlexaFluor-680 conjugates, near-infrared optical imaging", "type": "in vivo, Fox n1 nu mice", "description": "For in vivo imaging assays female Fox n1 nu mice (6-8 weeks of age, Harlan, Envigo) were used. The experiments were performed according to national regulations and approved by the local animal experiments ethical committee. Subconfluent CHO-K1-huSeprase cells were harvested and resuspended in PBS to a density of 1×10^7 cells/ml. Prior to inoculation, cell viability was tested by 0.4% trypan blue exclusion assay (viable cells>90%). For subcutaneous injection 1×10^6 CHO-K1-huSeprase cells in 100 μl PBS were mixed with 100 μl Matrigel (Corning) and injected into the right side of the limb. When tumor volumes reached 600-800 mm^3, animals were randomly separated into several groups for different treatments (n=3 per each group). […] At different time points after the injection, mice were anaesthetized by inhalation of isoflurane. In vivo imaging was conducted using a Xenogen IVIS Spectrum imaging System (Perkin Elmer, USA). Maximal near infrared signals (NIRF) were quantified using Living Image 2.5 (Xenogen, Perkin Elmer) image analysis software. For ex vivo NIRF imaging, the mice were sacrificed, and the tumor and major organs of each mouse were excised, weighed and analyzed by Xenogen IVIS System.\nTo analyze the pharmacokinetic and tumor targeting properties of the AF680-(MC-FA-012)3 trimer biodistribution in female Fox n1 nu mice was monitored at six time points after injection (1, 2, 4, 6, 24 and 96 h). […] After each time point biodistibution was measured in vivo and ex vivo using a Xenogen Imaging system (FIG. 14 A+B). […] Overall, the background signals for the binder and for the non-binding control were in the same range."}, "[2]": {"target": "T1, recombinant human Seprase (rhuSeprase) (Homo sapiens, UniProt Q12884)", "T1 construct": "named pCEP4-IgKappa-huSeprase-coCHO_26-760aa-H6 and used for the generation of recombinant soluble human Seprase (rhuSeprase); mouse Ig kappa-chain V-J2-C secretion signal (N, cleaved yes); made in house; host or cells: FreeStyle CHO-S cells (transient transfection; purified from supernatant by Ni-chelate and SEC)", "T1 sequence (Q12884 26-760)": "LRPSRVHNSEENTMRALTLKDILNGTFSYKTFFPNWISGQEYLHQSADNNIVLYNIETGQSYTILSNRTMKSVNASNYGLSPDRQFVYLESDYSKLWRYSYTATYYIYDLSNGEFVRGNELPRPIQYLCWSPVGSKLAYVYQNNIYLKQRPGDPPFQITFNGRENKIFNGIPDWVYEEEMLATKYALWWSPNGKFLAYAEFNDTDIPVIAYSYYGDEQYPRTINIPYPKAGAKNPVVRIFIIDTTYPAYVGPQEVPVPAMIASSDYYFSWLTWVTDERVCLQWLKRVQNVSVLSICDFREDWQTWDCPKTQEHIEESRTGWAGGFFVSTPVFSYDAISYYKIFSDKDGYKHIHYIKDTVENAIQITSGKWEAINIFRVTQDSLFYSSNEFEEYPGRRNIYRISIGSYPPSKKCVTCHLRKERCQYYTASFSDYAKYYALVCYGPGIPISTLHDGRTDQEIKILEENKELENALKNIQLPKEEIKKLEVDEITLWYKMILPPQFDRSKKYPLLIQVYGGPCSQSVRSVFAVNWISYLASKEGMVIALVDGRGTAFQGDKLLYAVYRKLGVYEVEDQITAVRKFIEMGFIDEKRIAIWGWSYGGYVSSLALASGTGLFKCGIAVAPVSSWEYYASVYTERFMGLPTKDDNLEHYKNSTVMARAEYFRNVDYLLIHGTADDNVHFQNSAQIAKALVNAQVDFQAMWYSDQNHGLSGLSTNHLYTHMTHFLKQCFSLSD", "assay": "Surface plasmon resonance (Biacore T100) on immobilized rhuSeprase", "type": "binding"}}, "data": [{"molecule": "AF680-(MC-FA-012)3: AlexaFluor 680 conjugated MC-FA-012 trimer (conjugate, left off: things letters cannot carry; small tags and cut ends, AlexaFluor 680 conjugated MC-FA-012 trimer) chain 1: GACPYSNWTPGRGPDCRRDSDCPGRCICRGNGYCG chain 2: GACPYSNWTPGRGPDCRRDSDCPGRCICRGNGYCG chain 3: GACPYSNWTPGRGPDCRRDSDCPGRCICRGNGYCG", "values": [{"measurement": "kidney signals", "setting": "[1]; mouse, in vivo", "result": "strong kidney signals"}, {"measurement": "signals in lung, heart, spleen and liver", "setting": "[1]; mouse, in vivo", "result": "generally low"}, {"measurement": "tumor uptake", "setting": "[1]; up to 24 h after injection", "result": "specific and significant tumor uptake"}, {"measurement": "offrate, times slower compared to MC-FA-012", "setting": "[2]", "result": "around 134 times"}, {"measurement": "ka", "setting": "[2]; 1:1 binding model", "result": "1.68e+07", "unit": "M⁻¹ s⁻¹"}]}]}
